# Experimental data: paper PMC3697942
# T1: HB5 (HOMEOBOX PROTEIN 5, class I HD-ZIP) (Arabidopsis thaliana, UniProt P46667 1-312)
# T1 sequence: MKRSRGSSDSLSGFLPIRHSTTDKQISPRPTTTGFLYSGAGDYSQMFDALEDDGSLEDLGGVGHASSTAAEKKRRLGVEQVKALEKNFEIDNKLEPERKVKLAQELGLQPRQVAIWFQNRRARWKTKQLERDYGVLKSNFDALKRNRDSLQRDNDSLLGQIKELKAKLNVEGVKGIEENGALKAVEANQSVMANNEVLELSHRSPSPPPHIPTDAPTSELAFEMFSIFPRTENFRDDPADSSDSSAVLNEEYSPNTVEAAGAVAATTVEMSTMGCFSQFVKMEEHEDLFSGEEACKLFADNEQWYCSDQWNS
# B1: PF 36bp (dsDNA)
# DNA 1: GGCCCGCCATTACAAGACATATGGGTCCCAATTCTCATCACGGGCC
# DNA 2: GGCCCGTGATGAGAATTGGGACCCATATGTCTTGTAATGGCGGGCC
# Molecular target: T1, HB5 (HOMEOBOX PROTEIN 5, class I HD-ZIP)
# Experiment: EMSA
binder,measurement,value
B1,binding result,binds
